Values of other authors, collected in PMC5023690.
pKd: −log10 of the molar value.

What was measured:
[1] = biological target: ONE-GC M836-C1110 (Rattus norvegicus) (UniProt P51839); test: SPR; given as Ka
[2] = biological target: ONE-GC M836-C1110 (Rattus norvegicus) (UniProt P51839); test: SPR

UniProt P51839, sequence (P51839 836-1110): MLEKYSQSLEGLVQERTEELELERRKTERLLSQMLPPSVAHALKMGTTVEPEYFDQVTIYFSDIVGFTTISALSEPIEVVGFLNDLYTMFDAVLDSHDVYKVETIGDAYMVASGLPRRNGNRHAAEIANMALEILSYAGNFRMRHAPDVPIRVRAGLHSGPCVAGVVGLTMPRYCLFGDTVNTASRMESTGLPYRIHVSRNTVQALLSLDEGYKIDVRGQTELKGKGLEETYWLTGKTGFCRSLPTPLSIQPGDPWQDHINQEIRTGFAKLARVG

pKd [1]: 6.37
pKd [2]: 6.37
Substance: Frq (frequenin) (from UniProt P62166)
